Assay results taken from patent publication US20030145347.

Key:
[1] = target: rice thioredoxin with S-tag (recombinant, expressed in E. coli from pNOV4113)
[2] = target: wheat thioredoxin with S-tag (recombinant, expressed in E. coli from pNOV4114)
[3] = target: soybean thioredoxin prep without S-tag (recombinant, expressed in E. coli from pNOV4112, S-Tag removed by thrombin cleavage)
[4] = target: soybean thioredoxin with S-tag (recombinant, expressed in E. coli from pNOV4112)

B1: E. coli thioredoxin reductase (T-7915, Sigma, St. Louis, Mo.) (protein)
chain: GTTKHSKLLILGSGPAGYTAAVYAARANLQPVLITGMEKGGQLTTTTEVENWPGDPNDLTGPLLMERMHEHATKFETEIIFDHINKVDLQNRPFRLNGDNGEYTCDALIIATGASARYLGLPSEEAFKGRGVSACATCDGFFYRNQKVAVIGGGNTAVEEALYLSNIASEVHLIHRRDGFRAEKILIKRLMDKVENGNIILHTNRTLEEVTGDQMGVTGVRLRDTQNSDNIESLDVAGLFVAIGHSPNTAIFEGQLELENGYIKVQSGIHGNATQTSIPGVFAAGDVMDHIYRQAITSAGTGCMAALDAERYLDGLADAK
- reduction of thioredoxin, DTNB assay [1]: can also reduce rice thioredoxin
- reduction of thioredoxin, DTNB assay [2]: Wheat thioredoxin can be reduced by E. coli thioredoxin reductase
- reduction of thioredoxin, DTNB assay [3]: can reduce soybean thioredoxin with and without the S-tag
- reduction of thioredoxin, DTNB assay [4]: can reduce soybean thioredoxin with and without the S-tag
